# Experimental data published in paper PMC10397247.
# B1: 4H1222-bA (peptide)
# chain: DENAQLEQENAELKQEIAELEWKIAQLKQ
# B2: 4H1068-AA (peptide)
# chain: DENAALEAEIAALEAKIAALKAENAALKG
# B3: 4H1046-bH (peptide)
# chain: DENQELEKEIEELERENWELEKKIQELKR
# Experiments:
# 4H1222-bA = molecular target: T1, 4H1222-bA; assay: two-hybrid library CCNG1;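 also: natural log of median RNA to DNA barcode read ratio; higher means stronger binding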
# T1 chain: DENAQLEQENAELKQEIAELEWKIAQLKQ
# 4H1338-bA = molecular target: T2, 4H1338-bA; assay: two-hybrid library CCNG1;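 also: natural log of median RNA to DNA barcode read ratio; higher means stronger binding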
# T2 chain: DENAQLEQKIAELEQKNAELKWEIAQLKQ
# 4H1348-bA = molecular target: T3, 4H1348-bA; assay: two-hybrid library CCNG1;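 also: natural log of median RNA to DNA barcode read ratio; higher means stronger binding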
# T3 chain: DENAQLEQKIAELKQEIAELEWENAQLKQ
# 4H1359-bA = molecular target: T4, 4H1359-bA; assay: two-hybrid library CCNG1;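 also: natural log of median RNA to DNA barcode read ratio; higher means stronger binding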
# T4 chain: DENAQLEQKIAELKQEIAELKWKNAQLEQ
# 4H1373-bA = molecular target: T5, 4H1373-bA; assay: two-hybrid library CCNG1;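 also: natural log of median RNA to DNA barcode read ratio; higher means stronger binding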
# T5 chain: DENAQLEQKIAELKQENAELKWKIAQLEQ
# 4H1393-bA = molecular target: T6, 4H1393-bA; assay: two-hybrid library CCNG1;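 also: natural log of median RNA to DNA barcode read ratio; higher means stronger binding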
# T6 chain: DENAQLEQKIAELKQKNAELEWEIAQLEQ
# 4H1449-bA = molecular target: T7, 4H1449-bA; assay: two-hybrid library CCNG1
# T7 chain: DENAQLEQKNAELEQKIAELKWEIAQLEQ
# 4H1544-bA = molecular target: T8, 4H1544-bA; assay: two-hybrid library CCNG1
# T8 chain: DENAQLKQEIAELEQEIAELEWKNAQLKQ
# 4H1629-bA = molecular target: T9, 4H1629-bA; assay: two-hybrid library CCNG1
# T9 chain: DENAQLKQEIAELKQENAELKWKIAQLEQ
# 4H1710-bA = molecular target: T10, 4H1710-bA; assay: two-hybrid library CCNG1
# T10 chain: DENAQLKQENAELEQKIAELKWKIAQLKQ
# 4H1804-bA = molecular target: T11, 4H1804-bA; assay: two-hybrid library CCNG1
# T11 chain: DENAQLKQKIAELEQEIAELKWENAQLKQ
# 4H1899-bA = molecular target: T12, 4H1899-bA; assay: two-hybrid library CCNG1
# T12 chain: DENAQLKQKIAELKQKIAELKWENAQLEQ
# 4H1985-bA = molecular target: T13, 4H1985-bA; assay: two-hybrid library CCNG1
# T13 chain: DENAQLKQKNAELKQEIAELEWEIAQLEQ
# 4H3129-bA = molecular target: T14, 4H3129-bA; assay: two-hybrid library CCNG1
# T14 chain: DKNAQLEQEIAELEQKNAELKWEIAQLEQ
# 4H3172-bA = molecular target: T15, 4H3172-bA; assay: two-hybrid library CCNG1
# T15 chain: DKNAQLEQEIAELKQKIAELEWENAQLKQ
# 4H3414-bA = molecular target: T16, 4H3414-bA; assay: two-hybrid library CCNG1
# T16 chain: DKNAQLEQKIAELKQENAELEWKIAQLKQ
# 4H3613-bA = molecular target: T17, 4H3613-bA; assay: two-hybrid library CCNG1
# T17 chain: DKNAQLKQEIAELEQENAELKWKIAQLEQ
# 4H3628-bA = molecular target: T18, 4H3628-bA; assay: two-hybrid library CCNG1
# T18 chain: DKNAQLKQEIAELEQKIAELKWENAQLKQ
# 4H3631-bA = molecular target: T19, 4H3631-bA; assay: two-hybrid library CCNG1
# T19 chain: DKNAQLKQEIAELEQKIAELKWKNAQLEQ
# 4H3638-bA = molecular target: T20, 4H3638-bA; assay: two-hybrid library CCNG1
# T20 chain: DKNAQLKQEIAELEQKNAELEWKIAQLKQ
# 4H3817-bA = molecular target: T21, 4H3817-bA; assay: two-hybrid library CCNG1
# T21 chain: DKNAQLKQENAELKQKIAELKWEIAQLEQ
# 4H3858-bA = molecular target: T22, 4H3858-bA; assay: two-hybrid library CCNG1
# T22 chain: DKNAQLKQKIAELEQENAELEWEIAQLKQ
# 4H3974-bA = molecular target: T23, 4H3974-bA; assay: two-hybrid library CCNG1
# T23 chain: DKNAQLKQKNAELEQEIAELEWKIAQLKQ
# 4H570-bA = molecular target: T24, 4H570-bA; assay: two-hybrid library CCNG1
# T24 chain: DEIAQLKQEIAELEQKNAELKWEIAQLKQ
# 4H584-bA = molecular target: T25, 4H584-bA; assay: two-hybrid library CCNG1
# T25 chain: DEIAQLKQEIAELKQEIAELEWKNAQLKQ
# 4H619-bA = molecular target: T26, 4H619-bA; assay: two-hybrid library CCNG1
# T26 chain: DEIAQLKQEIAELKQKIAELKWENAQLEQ
# 4H850-bA = molecular target: T27, 4H850-bA; assay: two-hybrid library CCNG1
# T27 chain: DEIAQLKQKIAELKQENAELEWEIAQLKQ
# 4H906-bA = molecular target: T28, 4H906-bA; assay: two-hybrid library CCNG1
# T28 chain: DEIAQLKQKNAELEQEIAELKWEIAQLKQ
# 4H1068-AA = molecular target: T29, 4H1068-AA; assay: two-hybrid library CCmax
# T29 chain: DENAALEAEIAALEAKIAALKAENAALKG
# 4H121-AA = molecular target: T30, 4H121-AA; assay: two-hybrid library CCmax; details: mean of both orientations
# T30 chain: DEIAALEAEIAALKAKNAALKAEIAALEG
# 4H1350-AA = molecular target: T31, 4H1350-AA; assay: two-hybrid library CCmax; details: mean of both orientations
# T31 chain: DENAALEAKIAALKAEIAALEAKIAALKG
# 4H1710-AA = molecular target: T32, 4H1710-AA; assay: two-hybrid library CCmax; details: mean of both orientations
# T32 chain: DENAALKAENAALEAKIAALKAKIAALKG
# 4H1985-AA = molecular target: T33, 4H1985-AA; assay: two-hybrid library CCmax; details: mean of both orientations
# T33 chain: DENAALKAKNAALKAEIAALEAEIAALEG
# 4H2187-AA = molecular target: T34, 4H2187-AA; assay: two-hybrid library CCmax; details: mean of both orientations
# T34 chain: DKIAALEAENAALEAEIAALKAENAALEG
# 4H233-AA = molecular target: T35, 4H233-AA; assay: two-hybrid library CCmax; details: mean of both orientations
# T35 chain: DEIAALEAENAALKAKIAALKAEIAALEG
# 4H2512-AA = molecular target: T36, 4H2512-AA; assay: two-hybrid library CCmax; details: mean of both orientations
# T36 chain: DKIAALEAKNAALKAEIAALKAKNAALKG
# 4H2646-AA = molecular target: T37, 4H2646-AA; assay: two-hybrid library CCmax; details: mean of both orientations
# T37 chain: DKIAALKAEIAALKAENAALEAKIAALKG
# 4H2687-AA = molecular target: T38, 4H2687-AA; assay: two-hybrid library CCmax; details: mean of both orientations
# T38 chain: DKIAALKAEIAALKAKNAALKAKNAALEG
# 4H2705-AA = molecular target: T39, 4H2705-AA; assay: two-hybrid library CCmax; details: mean of both orientations
# T39 chain: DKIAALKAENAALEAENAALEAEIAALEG
# 4H2758-AA = molecular target: T40, 4H2758-AA; assay: two-hybrid library CCmax; details: mean of both orientations
# T40 chain: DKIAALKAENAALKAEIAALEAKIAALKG
# 4H278-AA = molecular target: T41, 4H278-AA; assay: two-hybrid library CCmax; details: mean of both orientations
# T41 chain: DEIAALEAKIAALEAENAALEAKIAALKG
# 4H2873-AA = molecular target: T42, 4H2873-AA; assay: two-hybrid library CCmax; details: mean of both orientations
# T42 chain: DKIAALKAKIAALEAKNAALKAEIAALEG
# 4H2985-AA = molecular target: T43, 4H2985-AA; assay: two-hybrid library CCmax; details: mean of both orientations
# T43 chain: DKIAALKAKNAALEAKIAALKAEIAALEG
# 4H3134-AA = molecular target: T44, 4H3134-AA; assay: two-hybrid library CCmax; details: mean of both orientations
# T44 chain: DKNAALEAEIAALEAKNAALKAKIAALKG
# 4H3409-AA = molecular target: T45, 4H3409-AA; assay: two-hybrid library CCmax; details: mean of both orientations
# T45 chain: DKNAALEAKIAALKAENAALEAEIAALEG
# 4H3625-AA = molecular target: T46, 4H3625-AA; assay: two-hybrid library CCmax; details: mean of both orientations
# T46 chain: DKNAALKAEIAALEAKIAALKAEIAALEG
# 4H390-AA = molecular target: T47, 4H390-AA; assay: two-hybrid library CCmax; details: mean of both orientations
# T47 chain: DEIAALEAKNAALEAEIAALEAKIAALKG
# 4H3940-AA = molecular target: T48, 4H3940-AA; assay: two-hybrid library CCmax; details: mean of both orientations
# T48 chain: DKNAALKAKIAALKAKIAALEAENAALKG
# 4H510-AA = molecular target: T49, 4H510-AA; assay: two-hybrid library CCmax; details: mean of both orientations
# T49 chain: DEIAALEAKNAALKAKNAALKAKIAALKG
# 4H775-AA = molecular target: T50, 4H775-AA; assay: two-hybrid library CCmax; details: mean of both orientations
# T50 chain: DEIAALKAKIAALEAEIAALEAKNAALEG
# 4H816-AA = molecular target: T51, 4H816-AA; assay: two-hybrid library CCmax; details: mean of both orientations
# T51 chain: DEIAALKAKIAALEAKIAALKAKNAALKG
# 4H87-AA = molecular target: T52, 4H87-AA; assay: two-hybrid library CCmax; details: mean of both orientations
# T52 chain: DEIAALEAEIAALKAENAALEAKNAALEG
# 4H1046-bH = molecular target: T53, 4H1046-bH; assay: two-hybrid library CCNG1; details: mean of both orientations
# T53 chain: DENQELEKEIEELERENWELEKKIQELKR
# 4H1072-bH = molecular target: T54, 4H1072-bH; assay: two-hybrid library CCNG1
# T54 chain: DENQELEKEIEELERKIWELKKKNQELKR
# 4H2568-bH = molecular target: T55, 4H2568-bH; assay: two-hybrid library CCNG1
# T55 chain: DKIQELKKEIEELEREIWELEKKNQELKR
# 4H2619-bH = molecular target: T56, 4H2619-bH; assay: two-hybrid library CCNG1
# T56 chain: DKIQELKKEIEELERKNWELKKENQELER
# 4H2745-bH = molecular target: T57, 4H2745-bH; assay: two-hybrid library CCNG1
# T57 chain: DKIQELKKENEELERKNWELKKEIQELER
# 4H344-bH = molecular target: T58, 4H344-bH; assay: two-hybrid library CCNG1
# T58 chain: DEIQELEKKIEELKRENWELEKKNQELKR
# 4H363-bH = molecular target: T59, 4H363-bH; assay: two-hybrid library CCNG1
# T59 chain: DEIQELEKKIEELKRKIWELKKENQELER
# 4H3907-bH = molecular target: T60, 4H3907-bH; assay: two-hybrid library CCNG1
# T60 chain: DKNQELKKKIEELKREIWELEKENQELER
# 4H3961-bH = molecular target: T61, 4H3961-bH; assay: two-hybrid library CCNG1; details: mean of both orientations
# T61 chain: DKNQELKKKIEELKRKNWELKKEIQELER
# 4H470-bH = molecular target: T62, 4H470-bH; assay: two-hybrid library CCNG1
# T62 chain: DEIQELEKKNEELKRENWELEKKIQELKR
binder,measurement,setting,value
B1,interaction score,4H1222-bA,0.532
same,interaction score,4H1338-bA,0.202
same,interaction score,4H1348-bA,0.605
same,interaction score,4H1359-bA,-0.0139
same,interaction score,4H1373-bA,-0.665
same,interaction score,4H1393-bA,0.0501
same,interaction score,4H1449-bA,0.729
same,interaction score,4H1544-bA,0.517
same,interaction score,4H1629-bA,-0.826
same,interaction score,4H1710-bA,2.36
same,interaction score,4H1804-bA,-0.0181
same,interaction score,4H1899-bA,1.1
same,interaction score,4H1985-bA,1.8
same,interaction score,4H3129-bA,-1.85
same,interaction score,4H3172-bA,0.388
same,interaction score,4H3414-bA,-0.0927
same,interaction score,4H3613-bA,-0.452
same,interaction score,4H3628-bA,-0.374
same,interaction score,4H3631-bA,0.222
same,interaction score,4H3638-bA,-0.958
same,interaction score,4H3817-bA,1.18
same,interaction score,4H3858-bA,-0.31
same,interaction score,4H3974-bA,0.693
same,interaction score,4H570-bA,0.341
same,interaction score,4H584-bA,-1.36
same,interaction score,4H619-bA,-1.01
same,interaction score,4H850-bA,-0.2
same,interaction score,4H906-bA,-0.403
B2,interaction score,4H1068-AA,0.409
same,interaction score,4H121-AA,-0.866
same,interaction score,4H1350-AA,0.695
same,interaction score,4H1710-AA,-1.11
same,interaction score,4H1985-AA,0.534
same,interaction score,4H2187-AA,-1.71
same,interaction score,4H233-AA,0.754
same,interaction score,4H2512-AA,-1.06
same,interaction score,4H2646-AA,-0.0619
same,interaction score,4H2687-AA,0.562
same,interaction score,4H2705-AA,-1.15
same,interaction score,4H2758-AA,-1.99
same,interaction score,4H278-AA,-0.737
same,interaction score,4H2873-AA,-0.197
same,interaction score,4H2985-AA,-0.0876
same,interaction score,4H3134-AA,-0.167
same,interaction score,4H3409-AA,-1.36
same,interaction score,4H3625-AA,-0.226
same,interaction score,4H390-AA,-0.217
same,interaction score,4H3940-AA,2.05
same,interaction score,4H510-AA,-1.05
same,interaction score,4H775-AA,-0.238
same,interaction score,4H816-AA,0.372
same,interaction score,4H87-AA,-0.863
B3,interaction score,4H1046-bH,0.287
same,interaction score,4H1072-bH,-0.477
same,interaction score,4H2568-bH,1.03
same,interaction score,4H2619-bH,0.439
same,interaction score,4H2745-bH,0.917
same,interaction score,4H344-bH,1.33
same,interaction score,4H363-bH,-1.16
same,interaction score,4H3907-bH,-0.121
same,interaction score,4H3961-bH,-0.386
same,interaction score,4H470-bH,0.405
